Non-standard residues stand in square brackets, D forms with d. No end group written: not given here. *: point of attachment. Nle = CCCC[C@H](N)C(=O)O; ClAc = O=C(CCl)*
Legend:
[1] = molecular target: corticotropin-releasing factor receptor type 1 (CRF1R), wild type (rat) (UniProt P35353)
CRF1R [2] = molecular target: T1, CRF1R (Rattus norvegicus, UniProt P35353); assay: cAMP accumulation assay via luciferase reporter (ligand alone); type: cell-based; conditions: for EC50: cAMP level via luciferase reporter, transiently transfected HEK293 cells, 3 hr stimulation at 37°C; for EC50 / Receptor activation at 100 nM: mean ± s.e.m., at least three independent experiments, each in triplicate; for Receptor activation at 100 nM: 100 nM peptide, normalized to either Ucn1 or CRF, HEK293; for CRF1R activation / residual activity up to the maximal tested concentration of 100 nM: Figure 1B legend; for CRF1R activation / residual activity up to the maximal tested concentration of 100 nM / EC50 (Figure 1B legend): HEK293, luciferase reporter; for EC50 (Figure 1B legend): agrees with literature data
T1 construct: all our experimental data are obtained from the intact full-length, fully glycosylated receptor at the membrane of the live cell; expressed in transfected cells; host or cells: HEK293 (transient co-transfection with CRE-luciferase reporter and Renilla plasmid)
T1 sequence (P35353 24-415): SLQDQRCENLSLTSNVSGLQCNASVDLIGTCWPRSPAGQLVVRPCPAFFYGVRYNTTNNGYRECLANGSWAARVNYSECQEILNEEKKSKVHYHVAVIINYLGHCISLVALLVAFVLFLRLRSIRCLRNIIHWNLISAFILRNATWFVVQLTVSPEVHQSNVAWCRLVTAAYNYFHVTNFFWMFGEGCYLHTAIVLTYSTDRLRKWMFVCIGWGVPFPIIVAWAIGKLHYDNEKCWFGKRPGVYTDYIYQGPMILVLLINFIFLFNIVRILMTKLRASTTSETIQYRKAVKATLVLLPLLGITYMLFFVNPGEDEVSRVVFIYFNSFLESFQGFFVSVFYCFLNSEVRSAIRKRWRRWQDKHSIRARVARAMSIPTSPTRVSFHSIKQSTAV
Text: Figure 1. Photo-crosslinking mapping of CRF1R to determine footprints of agonists and antagonists. (A) Sequence alignment of CRF1R peptide ligands. The classification into N-terminus, C-terminus and helical connector is adopted from [Beyermann et al. (2000]). […] In ^dFXCRF(12-41), substitutions of the two native Met residues to Nle and the N-terminal D-amino acid to enhance its stability and potency ([Rivier and Rivier, 2014]). […] The assay measures cAMP accumulation in live HEK293 cells stimulated with serial dilutions of each ligand via a luciferase reporter. Plots are representative mean ± s.e.m. of at least three independent experiments, each run in triplicates. (B) CRF1R activation elicited by each of the ligands used in this study. […] (E) Photo-crosslinking experiments. Transiently transfected 293T cells expressing each Azi-CRF1R mutant (residues replaced by Azi are indicated in the upper row) were incubated with each of the five peptide ligands indicated in the right column, followed by UV irradiation (365 nm). […] To obtain sharper bands, samples were deglycosylated by PNGaseF. The subdivision of transmembrane helices and ECLs is based on the crystal structure of the CRF1R TMD ([Hollenstein et al., 2013]). […] DOI: http://dx.doi.org/10.7554/eLife.27711.002 Figure 1—source data 1. Numerical values of cAMP accumulation assay. The assay measures cAMP accumulation in live HEK293 cells stimulated with serial dilutions of each ligand via a luciferase reporter. Raw luminescence data of the firefly reporter luciferase were normalized to the Renilla control and to 100% activation of agonists. At least three independent experiments were performed per ligand, and each experiment was run in triplicate. Values in the table represent a single measurement. Mean ± s.e.m. of triplicates for one representative experiment are reported in Figure 1B–D. DOI: http://dx.doi.org/10.7554/eLife.27711.003 Figure 1—source data 2. Numerical values of whole-cell ELISA of HA-Azi-CRF1R mutants. Related to Figure 1—figure supplement 1. The absorption was measured at 492 nm. Each data point was obtained as mean of three independent experiments, each performed in triplicate. Mean ± s.e.m. of the means of the triplicates are plotted in Figure 1—figure supplement 1B. DOI: http://dx.doi.org/10.7554/eLife.27711.004 Figure 1—figure supplement 1. Expression profiles of a subset of Azi-CRF1R mutants. […] (A) Whole-cell lysates of 293T cells transiently expressing each Azi-CRF1R mutant were resolved on 10% SDS-PAGE and analyzed by Western blotting using an M2 anti-FLAG-HRP antibody. The Azi mutation site is indicated in the top row. […] (B) Whole-cell ELISA of HA-Azi-CRF1R mutants. The absorptions at 492 nm (OD492) are shown as mean ± s.e.m. obtained from three independent experiments each performed in triplicates and normalized to wild type (wt). The positions replaced by Azi are identical to (A). DOI: http://dx.doi.org/10.7554/eLife.27711.005 [drawing 1]
The day prior to transfection, 6 × 10^6 HEK293 cells were seeded in 10 cm dishes. Cells were co-transfected with 0.5 µg of plasmid encoding the wild-type CRF1R gene under control of a PGK promoter, 5 µg of the reporter construct (humanized PpyRE9 [[Branchini et al., 2010]] firefly luciferase gene driven by a cAMP-responsive element and followed by a PEST sequence), and 0.5 µg of plasmid encoding Renilla luciferase driven by a CMV promoter. Transfection was performed using PEI max as described above. The following day, cells were trypsinized and transferred into a 96-well plate at a density of 180,000 cells per well.

CRF1R [3] = conditions: ref Gulyas et al., 1995; cited from earlier work

Substance | Receptor activation at 100 nM [%] (cAMP accumulation, normalized to Ucn1 or CRF) [1] | EC50 of cAMP accumulation (CRE-luciferase reporter) in HEK293 cells transfected with CRF1R [1] | other results
SEEPPISLDLTFHLK(ClAc)REVLE[Nle]ARAEQLAQQAHSNRKL[Nle]EII-NH2 [[Lys(ClAc)^15]- ^XCRF] | – | – | EC50 (CRF1R [2]): 0.08 ± 0.22 nM
[Lys(ClAc)^16]-^dFXCRF(12-41) (peptide) | 1.06% | – | –
[Lys(ClAc)^17]-^XCRF (peptide) | – | 0.08 nM | –
[ClAc^0]-^dFXCRF(12-41) (peptide) | 0.62% | – | –
[DPhe^12,Nle^21,38]-CRF(12-41) [^dFXCRF(12-41)] | – | – | Receptor activation at 100 nM (CRF1R [2]): 0.53 ± 0.47%; CRF1R activation / residual activity up to the maximal tested concentration of 100 nM (CRF1R [2]): did not elicit any significant receptor activation; Binding affinity of CRF1R relative to CRF (lower) (CRF1R [3]): ~ 10 fold
[Lys(ClAc)^18]-^dFXCRF(12-41) (peptide) | 0.59% | – | –
corticotropin-releasing factor (SEEPPISLDLTFHLLREVLEMARAEQLAQQAHSNRKLMEIIGK) [CRF, 41-mer endogenous peptide agonist of CRF1R] | – | – | EC50 (Figure 1B legend) (CRF1R [2]): Sub-nanomolar
CRF(9-41): 33-mer antagonist obtained by N-terminal truncation of the first eight residues of CRF (DLTFHLLREVLEMARAEQLAQQAHSNRKLMEII; ends and bridges not checked; UniProt P06850 162-194, looked up, fragment) | – | – | Receptor activation at 100 nM (CRF1R [2]): 4.03 ± 1.27%; CRF1R activation / residual activity up to the maximal tested concentration of 100 nM (CRF1R [2]): < 10%
[Lys(ClAc)^13]-^XCRF (peptide) | – | 0.03 nM | –
[Lys(ClAc)^15]-^dFXCRF(12-41) (peptide) | 0.39% | – | –
SEEPPISLDLTFHLLREVLE[Nle]ARAEQLAQQAHK(ClAc)NRKL[Nle]EII-NH2 [[Lys(ClAc)^33]- ^XCRF] | – | – | EC50 (CRF1R [2]): 0.04 nM
[Lys(ClAc)^17]-^dFXCRF(12-41) (peptide) | 0.31% | – | –
[DPhe^12,Nle^21,38]-CRF(12-41) (peptide) | 0.53% | – | –
[Lys(ClAc)^33]-^dFXCRF(12-41) (peptide) | 1.85% | – | –
[Lys(ClAc)^18]-^XCRF (peptide) | – | 0.03 nM | –
Ucn1(8-40): 33-mer N-truncated Ucn1 antagonist, introduced in this work for the first time (DLTFHLLRTLLELARTQSQRERAEQNRIIFDSV; ends and bridges not checked; UniProt P55089 90-122, looked up, fragment) | – | – | Receptor activation at 100 nM (CRF1R [2]): 8.20 ± 2.76%; CRF1R activation / residual activity up to the maximal tested concentration of 100 nM (CRF1R [2]): < 10%
Urocortin I (DNPSLSIDLTFHLLRTLLELARTQSQRERAEQNRIIFDSVGK) [Ucn1, 40-mer endogenous peptide agonist of CRF1R] | – | – | EC50 (Figure 1B legend) (CRF1R [2]): Sub-nanomolar
SEEPPISLDLTFHLLRK(ClAc)VLE[Nle]ARAEQLAQQAHSNRKL[Nle]EII-NH2 [[Lys(ClAc)^17]- ^XCRF] | – | – | EC50 (CRF1R [2]): 0.08 nM
[Lys(ClAc)^31]-^dFXCRF(12-41) (peptide) | 0.52% | – | –
corticotropin-releasing factor (CRF) (from UniProt P06850 154-196) (peptide) | – | 0.11 nM | –

Further lines, with some results ahead:

Receptor activation at 100 nM [%] (cAMP accumulation, normalized to Ucn1 or CRF) [1] | EC50 of cAMP accumulation (CRE-luciferase reporter) in HEK293 cells transfected with CRF1R [1] | Substance | other results
1.49% | – | [Lys(ClAc)^14]-^dFXCRF(12-41) (peptide) | –
2.41% | – | [Lys(ClAc)^13]-^dFXCRF(12-41) (peptide) | –
– | 0.06 nM | [Lys(ClAc)^31]-^XCRF (peptide) | –
8.2% | – | Ucn1(8-40) (peptide) | –
– | 0.2 nM | [Lys(ClAc)^16]-^XCRF (peptide) | –
4.03% | – | CRF(9-41) (peptide) | –
– | 0.08 nM | [Lys(ClAc)^15]-^XCRF (peptide) | –
– | 0.16 nM | Urocortin I (Ucn1) (from UniProt P55089 83-124) (peptide) | –
– | 0.04 nM | [Lys(ClAc)^33]-^XCRF (peptide) | –

Source: publication PMC5542768, “Structural insight into the activation of a class B G-protein-coupled receptor by peptide hormones in live human cells” (eLife, 2017)
